Source: IntAct's records for PubMed 25201882

Tests used:
[1] = biological target: sc16a_mouse Sec16a (UniProt E9QAT4)
[2] = biological target: sc16a_human SEC16A (UniProt O15027)
UniProt O15027, sequence (O15027 whole entry): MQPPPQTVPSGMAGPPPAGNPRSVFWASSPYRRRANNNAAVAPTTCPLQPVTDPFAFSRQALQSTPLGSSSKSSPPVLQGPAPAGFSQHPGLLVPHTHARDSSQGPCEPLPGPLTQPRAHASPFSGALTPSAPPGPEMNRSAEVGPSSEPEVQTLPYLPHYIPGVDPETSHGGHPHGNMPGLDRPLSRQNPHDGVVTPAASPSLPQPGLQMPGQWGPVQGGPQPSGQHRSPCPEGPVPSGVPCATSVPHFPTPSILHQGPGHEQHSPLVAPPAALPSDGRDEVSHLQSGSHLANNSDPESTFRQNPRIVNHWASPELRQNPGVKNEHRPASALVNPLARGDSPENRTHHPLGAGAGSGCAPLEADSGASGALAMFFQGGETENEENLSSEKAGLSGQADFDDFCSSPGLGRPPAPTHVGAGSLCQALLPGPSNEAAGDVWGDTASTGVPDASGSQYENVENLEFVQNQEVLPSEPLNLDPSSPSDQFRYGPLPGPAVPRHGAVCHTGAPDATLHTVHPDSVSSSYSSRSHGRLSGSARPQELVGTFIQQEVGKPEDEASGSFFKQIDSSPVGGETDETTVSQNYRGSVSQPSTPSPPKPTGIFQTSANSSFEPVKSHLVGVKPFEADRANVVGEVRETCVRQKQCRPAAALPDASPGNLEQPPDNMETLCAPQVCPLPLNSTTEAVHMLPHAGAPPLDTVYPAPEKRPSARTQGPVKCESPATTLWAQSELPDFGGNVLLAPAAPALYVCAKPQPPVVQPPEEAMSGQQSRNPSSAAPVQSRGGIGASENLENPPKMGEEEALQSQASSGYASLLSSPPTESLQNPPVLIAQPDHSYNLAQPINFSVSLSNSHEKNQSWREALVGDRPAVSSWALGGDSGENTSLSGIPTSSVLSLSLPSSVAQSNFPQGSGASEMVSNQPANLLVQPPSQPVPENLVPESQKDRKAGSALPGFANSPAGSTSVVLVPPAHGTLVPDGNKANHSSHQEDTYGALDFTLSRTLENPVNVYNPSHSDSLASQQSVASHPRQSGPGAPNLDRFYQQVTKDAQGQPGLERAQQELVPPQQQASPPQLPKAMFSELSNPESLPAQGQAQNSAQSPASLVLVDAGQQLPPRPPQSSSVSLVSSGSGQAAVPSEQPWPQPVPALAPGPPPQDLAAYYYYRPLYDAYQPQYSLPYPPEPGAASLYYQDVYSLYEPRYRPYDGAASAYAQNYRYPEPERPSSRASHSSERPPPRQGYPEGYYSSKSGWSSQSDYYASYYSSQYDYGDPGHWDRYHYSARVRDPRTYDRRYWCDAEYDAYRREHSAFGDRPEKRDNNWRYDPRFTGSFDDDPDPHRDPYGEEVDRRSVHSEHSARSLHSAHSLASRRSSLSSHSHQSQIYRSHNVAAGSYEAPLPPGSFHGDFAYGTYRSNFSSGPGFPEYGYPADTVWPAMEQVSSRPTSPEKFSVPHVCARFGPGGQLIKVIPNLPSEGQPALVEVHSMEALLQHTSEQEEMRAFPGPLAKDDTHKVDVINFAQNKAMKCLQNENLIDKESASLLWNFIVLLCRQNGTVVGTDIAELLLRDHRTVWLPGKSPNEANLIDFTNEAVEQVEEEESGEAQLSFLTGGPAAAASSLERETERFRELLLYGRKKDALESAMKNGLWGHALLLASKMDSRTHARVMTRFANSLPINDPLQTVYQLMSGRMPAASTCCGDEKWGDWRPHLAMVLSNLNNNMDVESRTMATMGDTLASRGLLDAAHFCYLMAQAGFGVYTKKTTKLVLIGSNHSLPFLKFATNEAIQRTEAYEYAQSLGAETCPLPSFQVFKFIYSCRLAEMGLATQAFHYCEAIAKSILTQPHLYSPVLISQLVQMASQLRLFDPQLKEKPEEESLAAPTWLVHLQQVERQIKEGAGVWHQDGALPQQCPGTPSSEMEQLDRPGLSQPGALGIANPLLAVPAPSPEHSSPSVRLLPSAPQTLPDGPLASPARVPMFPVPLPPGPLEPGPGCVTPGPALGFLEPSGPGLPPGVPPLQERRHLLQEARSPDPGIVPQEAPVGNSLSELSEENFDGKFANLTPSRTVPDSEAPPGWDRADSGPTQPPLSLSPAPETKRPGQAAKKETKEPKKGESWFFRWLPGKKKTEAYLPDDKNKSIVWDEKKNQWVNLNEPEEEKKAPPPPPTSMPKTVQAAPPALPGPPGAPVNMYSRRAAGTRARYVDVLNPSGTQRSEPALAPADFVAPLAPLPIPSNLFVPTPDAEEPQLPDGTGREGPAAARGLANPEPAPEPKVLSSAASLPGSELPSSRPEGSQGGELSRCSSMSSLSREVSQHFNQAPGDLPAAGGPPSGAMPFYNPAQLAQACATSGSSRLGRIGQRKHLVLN

UniProt E9QAT4, sequence (E9QAT4 whole entry): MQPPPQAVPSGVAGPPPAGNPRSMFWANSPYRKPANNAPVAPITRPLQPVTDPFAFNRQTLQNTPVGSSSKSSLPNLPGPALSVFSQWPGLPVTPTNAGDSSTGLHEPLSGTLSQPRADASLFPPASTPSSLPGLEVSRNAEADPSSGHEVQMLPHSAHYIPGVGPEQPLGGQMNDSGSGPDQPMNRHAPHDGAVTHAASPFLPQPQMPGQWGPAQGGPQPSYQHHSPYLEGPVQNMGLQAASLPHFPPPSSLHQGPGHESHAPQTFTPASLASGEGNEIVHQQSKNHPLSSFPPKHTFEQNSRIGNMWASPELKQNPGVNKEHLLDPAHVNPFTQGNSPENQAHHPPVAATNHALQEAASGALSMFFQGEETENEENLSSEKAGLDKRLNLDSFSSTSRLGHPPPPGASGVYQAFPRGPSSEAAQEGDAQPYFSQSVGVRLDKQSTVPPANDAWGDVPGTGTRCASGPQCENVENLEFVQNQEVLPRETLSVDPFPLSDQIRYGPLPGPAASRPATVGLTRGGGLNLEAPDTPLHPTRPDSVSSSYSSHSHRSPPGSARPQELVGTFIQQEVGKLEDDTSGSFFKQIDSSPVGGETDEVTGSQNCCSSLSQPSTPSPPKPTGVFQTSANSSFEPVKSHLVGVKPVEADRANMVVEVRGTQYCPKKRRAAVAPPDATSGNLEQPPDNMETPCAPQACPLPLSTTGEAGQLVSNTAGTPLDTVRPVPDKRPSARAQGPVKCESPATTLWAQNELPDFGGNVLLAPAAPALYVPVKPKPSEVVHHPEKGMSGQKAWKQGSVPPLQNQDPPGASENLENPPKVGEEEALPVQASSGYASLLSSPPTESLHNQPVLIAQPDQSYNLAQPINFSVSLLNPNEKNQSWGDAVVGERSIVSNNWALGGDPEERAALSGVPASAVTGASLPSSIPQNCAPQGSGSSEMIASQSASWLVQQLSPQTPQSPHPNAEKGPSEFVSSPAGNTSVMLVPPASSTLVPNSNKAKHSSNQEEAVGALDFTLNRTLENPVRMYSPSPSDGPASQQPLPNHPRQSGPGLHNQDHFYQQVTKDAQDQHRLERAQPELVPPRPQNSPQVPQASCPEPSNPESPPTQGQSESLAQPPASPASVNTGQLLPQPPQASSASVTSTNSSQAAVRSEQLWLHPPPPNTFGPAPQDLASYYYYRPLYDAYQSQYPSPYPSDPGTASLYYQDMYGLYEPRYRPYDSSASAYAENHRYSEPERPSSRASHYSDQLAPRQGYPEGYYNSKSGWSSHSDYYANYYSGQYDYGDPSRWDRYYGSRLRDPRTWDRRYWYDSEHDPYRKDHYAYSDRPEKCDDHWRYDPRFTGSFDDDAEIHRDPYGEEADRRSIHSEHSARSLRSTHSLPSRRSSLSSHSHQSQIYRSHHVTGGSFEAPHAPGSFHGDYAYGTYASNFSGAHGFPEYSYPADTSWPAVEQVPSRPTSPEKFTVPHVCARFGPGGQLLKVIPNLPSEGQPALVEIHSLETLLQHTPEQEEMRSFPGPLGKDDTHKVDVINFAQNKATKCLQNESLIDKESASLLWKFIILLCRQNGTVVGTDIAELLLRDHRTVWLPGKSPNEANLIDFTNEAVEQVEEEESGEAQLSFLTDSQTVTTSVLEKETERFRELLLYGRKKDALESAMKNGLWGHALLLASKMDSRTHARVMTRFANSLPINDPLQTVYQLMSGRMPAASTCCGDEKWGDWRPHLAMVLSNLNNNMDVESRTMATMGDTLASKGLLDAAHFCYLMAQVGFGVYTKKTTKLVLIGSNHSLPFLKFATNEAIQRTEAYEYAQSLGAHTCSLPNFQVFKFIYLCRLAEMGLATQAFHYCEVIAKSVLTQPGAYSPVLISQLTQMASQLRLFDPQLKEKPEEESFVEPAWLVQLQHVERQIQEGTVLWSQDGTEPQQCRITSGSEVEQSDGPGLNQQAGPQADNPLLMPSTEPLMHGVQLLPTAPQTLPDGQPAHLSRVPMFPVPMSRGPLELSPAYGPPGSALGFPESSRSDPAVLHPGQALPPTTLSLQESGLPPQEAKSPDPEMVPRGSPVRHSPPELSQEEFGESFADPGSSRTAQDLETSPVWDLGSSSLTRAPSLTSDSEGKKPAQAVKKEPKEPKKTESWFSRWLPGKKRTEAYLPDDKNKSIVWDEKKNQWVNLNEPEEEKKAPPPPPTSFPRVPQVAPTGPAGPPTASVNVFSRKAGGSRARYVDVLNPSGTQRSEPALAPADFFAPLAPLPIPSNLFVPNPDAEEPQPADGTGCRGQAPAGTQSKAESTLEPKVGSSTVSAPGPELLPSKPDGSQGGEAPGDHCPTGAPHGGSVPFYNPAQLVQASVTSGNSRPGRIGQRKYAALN

| Substance | effect of a mutation on the interaction [1] | effect of a mutation on the interaction [2] |
| --- | --- | --- |
| Leucine-rich repeat serine/threonine-protein kinase 2 (Homo sapiens), Q5S007 K1347A | disrupting interaction strength | disrupting interaction strength |
| Leucine-rich repeat serine/threonine-protein kinase 2 (Homo sapiens), Q5S007 R1441C | disrupting interaction strength | decreasing interaction strength |
